Data as given in US20040253685.
Where a chain is given by its changes, count along the chain named.

Key:
[1] = target: T1, wild type bovine endothelial nitric oxide synthase (eNOS) (UniProt P29473)
T1 sequence: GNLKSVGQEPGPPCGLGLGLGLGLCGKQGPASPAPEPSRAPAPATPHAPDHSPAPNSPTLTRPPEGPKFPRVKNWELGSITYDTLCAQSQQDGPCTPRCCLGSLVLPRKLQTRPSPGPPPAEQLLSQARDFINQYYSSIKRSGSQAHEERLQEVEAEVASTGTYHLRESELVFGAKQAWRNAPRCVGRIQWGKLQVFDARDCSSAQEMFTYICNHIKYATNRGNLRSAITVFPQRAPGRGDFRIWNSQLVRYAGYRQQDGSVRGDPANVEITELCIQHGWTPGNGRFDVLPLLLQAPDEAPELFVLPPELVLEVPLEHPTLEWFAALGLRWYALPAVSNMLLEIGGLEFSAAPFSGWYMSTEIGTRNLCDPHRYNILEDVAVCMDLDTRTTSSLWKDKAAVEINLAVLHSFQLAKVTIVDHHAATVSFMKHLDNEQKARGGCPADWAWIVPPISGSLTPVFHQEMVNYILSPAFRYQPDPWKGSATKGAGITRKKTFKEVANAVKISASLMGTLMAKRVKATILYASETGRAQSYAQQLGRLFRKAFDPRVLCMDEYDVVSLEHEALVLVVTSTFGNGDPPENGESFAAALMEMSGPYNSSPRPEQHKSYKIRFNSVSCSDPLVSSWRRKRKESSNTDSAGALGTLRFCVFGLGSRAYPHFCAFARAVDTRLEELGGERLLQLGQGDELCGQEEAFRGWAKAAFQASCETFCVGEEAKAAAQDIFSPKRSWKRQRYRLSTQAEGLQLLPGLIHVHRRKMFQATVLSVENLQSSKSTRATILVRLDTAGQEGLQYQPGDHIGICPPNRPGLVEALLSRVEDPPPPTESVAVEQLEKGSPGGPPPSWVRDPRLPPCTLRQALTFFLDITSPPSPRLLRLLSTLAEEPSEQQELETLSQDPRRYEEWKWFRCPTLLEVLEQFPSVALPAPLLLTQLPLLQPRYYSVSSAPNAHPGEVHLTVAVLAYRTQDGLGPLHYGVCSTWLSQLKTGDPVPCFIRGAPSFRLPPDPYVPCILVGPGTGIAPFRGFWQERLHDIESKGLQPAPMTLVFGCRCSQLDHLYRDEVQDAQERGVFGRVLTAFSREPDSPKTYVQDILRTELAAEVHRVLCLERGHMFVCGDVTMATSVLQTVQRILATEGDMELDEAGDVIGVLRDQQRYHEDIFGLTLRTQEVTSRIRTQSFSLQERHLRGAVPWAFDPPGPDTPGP

eNOS S1179A (bovine) = target: T2, eNOS S1179A (bovine) (UniProt P29473)
T2 sequence: T1 sequence with S1178A

[2] = tested on: mutant eNOS peptide, amino acids 1174-1194 with S1179 changed to an alanine
[3] = tested on: T3, wild-type eNOS peptide, amino acids 1174-1194
T3 sequence: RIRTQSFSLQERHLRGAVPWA

Row | Substance | in vitro kinase reaction, incorporation of 32P into the substrate (histone 2B) | in vitro kinase reaction, incorporation of 32P into the substrate [1] | other results
1 | HA-tagged kinase inactive Akt (K179M) | the inactive Akt did not significantly increase histone or eNOS phosphorylation | the inactive Akt did not significantly increase histone or eNOS phosphorylation | 
2 | HA-tagged wild-type Akt (protein kinase B) | 69.3±2.9 ... pmol of ATP/nmol substrate | 115.4±3.8 pmol of ATP/nmol substrate | 
3 | constitutively active form of Akt (myr-Akt) |  |  | basal production of NO from adenovirus infected BLMVEC [1]: myr-Akt stimulates the basal production of NO from BLMVEC
4 | recombinant Akt purified from baculovirus infected SF9 cells |  |  | in vitro kinase reaction with recombinant Akt, incorporation of 32P into eNOS (eNOS S1179A (bovine)): mutation of S1179 to A markedly reduces Akt-dependent phosphorylation of eNOS compared to the wild-type protein; in vitro kinase reaction, phosphate incorporated into the peptide (Cerenkov counting) [2]: the alanine mutant peptide which incorporated 0.22±0.02 nmol phosphate/mg; in vitro kinase reaction, phosphate incorporated into the peptide (Cerenkov counting) [3]: wild-type peptide incorporated 24.6±3.7 nmol phosphate/mg
